In patent US6541002B1, “Compositions and methods for providing a protein to a virion” (Thomas Jefferson University, priority 1998, dated 2003):

B1: CAT: chloramphenicol acetyltransferase, a protein which does not normally comprise a Vpr-binding region (protein)
chain: MEKKITGYTTVDISQWHRKEHFEAFQSVAQCTYNQTVQLDITAFLKTVKKNKHKFYPAFIHILARLMNAHPEFRMAMKDGELVIWDSVHPCYTVFHEQTETFSSLWSEYHDDFRQFLHIYSQDVACYGENLAYFPKGFIENMFFVSANPWVSFTSFDLNVANMDNFFAPVFTMGKYYTQGDKVLMPLAIQVHHAVCDGFHVGRMLNELQQYCDEWQGGA
B2: WF-CAT (protein)
chain: MQPWWAFFGGGSSWWSFSMGPTRMEKKITGYTTVDISQWHRKEHFEAFQSVAQCTYNQTVQLDITAFLKTVKKNKHKFYPAFIHILARLMNAHPEFRMAMKDGELVIWDSVHPCYTVFHEQTETFSSLWSEYHDDFRQFLHIYSQDVACYGENLAYFPKGFIENMFFVSANPWVSFTSFDLNVANMDNFFAPVFTMGKYYTQGDKVLMPLAIQVHHAVCDGFHVGRMLNELQQYCDEWQGGA
B3: dWF-IN: dWF peptide (SEQ ID NO: 1) fused at its carboxyl terminus to the amino terminus of HIV-1 IN (protein)
chain: MQPWWAFFGGGSSWWSFSMGPTRFLDGIDKAQEEHEKYHSNWRAMASDFNLPPVVAKEIVASCDKCQLKGEAMHGQVDCSPGIWQLDCTHLEGKVILVAVHVASGYIEAEVIPAETGQETAYFLLKLAGRWPVKTVHTDNGSNFTSTTVKAACWWAGIKQEFGIPYNPQSQGVIESMNKELKKIIGQVRDQAEHLKTAVQMAVFIHNFKRKGGIGGYSAGERIVDIIATDIQTKELQKQITKIQNFRVYYRDSRDPVWKGPAKLLWKGEGAVVIQDNSDIKVVPRRKAKIIRDYGKQMAGDDCVASRQDED
B4: dWF-PR-IN: dWF peptide (SEQ ID NO: 1) fused to the HIV-1 protease cleavage site (PR), which is fused to the amino terminus of IN (protein)
chain: B3 chain
modifications: left off: small tags and cut ends

Experiments:
HIV-1 virions [1] = assay: CAT activity assay of HIV-1 virions from co-transfected 293T cells (incorporation into virions); type: cell-based
Experimental: About 10^6 293T cells were grown in dishes having a diameter of 10 centimeters. These cells were co-transfected with 10 micrograms of either plasmid pNL4-3 or plasmid pNL4-3DVpr, and with 10 micrograms of a plasmid selected from the group consisting of plasmid pSLXCMV-CAT, plasmid pSLXCMV-VPR-CAT, and plasmid pSLXCMV-dWF-CAT. After transfection, the cells were incubated in medium for about seven hours. The medium was then removed and replaced with fresh medium, and cells and medium were collected about forty-eight hours after the medium was replaced. At that time, the medium comprised virus produced by the cells. The amount of virus present in the medium was determined by assessing the amount of HIV-1 p24 antigen in the medium, using a p24 ELISA kit obtained from Dupont (Wilmington, Del.).
CAT activity assays were performed as described (Refaeli et al., 1995, Proc. Natl. Acad. Sci. USA 92:3621-3625). Briefly, about 10^6 transfected cells were harvested by centrifugation. Pelleted cells were lysed in 0.9 milliliter of CAT lysis buffer (Promega Corp., Madison, Wis.) to yield a crude extract. 50 microliters of crude extract was used in CAT assays, and the results of the assays were normalized to account for variation in the protein content of the various crude extracts which were made.
Virions obtained from the medium in which transfected 293T cells were grown were concentrated by ultracentrifuging the medium in a Sorval A-621 rotor for about three hours at 20,000 rotations per minute. […] The amount of HIV-1 p24 antigen in each fraction was assessed, and fractions containing the greatest amounts of p24 were selected. […] CAT activity was assessed in lysed virion preparations.
CAT activity was assessed by thin-layer chromatographic separation of ^14C-chloramphenicol from its acetylated derivatives. Radioactivity was quantitated by standard liquid scintillation methods. […]

[2] = tested on: IN-Defective HIV-1 Particles; assay: Syncytia formation assay with IN-defective HIV-1 particles complemented with IN chimeras; type: cell-based
Text: Using the calcium phosphate method for delivery of DNA into cells (Profection™, Promega Corp., Madison, Wis.), cells of human kidney carcinoma cell line 293T were transfected using HIV-1 proviral clones or co-transfected with these templates and SLX-CMV-VPR-IN, SLX-CMV-VPR-PR-IN, SLX-CMV-WF-IN, or SLX-CMV-dWF-PR-IN. Three days post-transfection, cell supernatants containing virus were harvested and clarified by low-speed centrifugation. HeLa-CD4-LTR/β-gal cells grown in either 60×14 or 35×10 millimeter plates were infected in duplicate at about 10-15% confluence using various viral stocks. Addition of supernatant to these MAGI reporter cells was adjusted, based upon HIV-1 p24 antigen content as quantitated by ELISA analysis (Kimpton et al., 1992, J. Virol. 66:2232-2239). MAGI cells contain an integrated cassette comprising the β-galactoside gene (β-gal) under the control of the HIV-1 long terminal repeat, and therefore can be stained for β-galactosidase activity (typically 48-72 hours post-infection).
Infected cells were fixed in a solution comprising 0.2% (v/v) glutaraldehyde and 1% (v/v) formaldehyde for 5 minutes at room temperature. Following fixation, cells were washed with phosphate buffered saline and stained using bromo-4-chloro-3-indolyl-β-D-galactopyranoside for 2 hours at 37° C. Representative fields of stained cells were photographed and numbers of deeply stained syncytia were determined either by visual counting through a microscope or from series of photographs taken in various fields of the stained cells using an Olympus CK2 microscope.
IN activity was detected using the syncytia formation assay described in this Example.

HIV-1 virions [3] = assay: Western blotting analyses of complemented HIV-1 virions; settings: integration-competent progeny virions
Experimental: 293T cells were grown in duplicate 100×20 millimeter culture dishes and transfected as described in the previous section. Virions released into the cell culture medium 2 ½ to 3 days post-transfection were centrifuged at 2000 rpm for 5 minutes at 4° C. to remove cellular debris. Afterward, virions were concentrated by adding 10 milliliters of cell medium atop 2 milliliters of buffered, isotonic 20% (w/v) sucrose, and ultracentrifuging the cushioned medium at 40,000 rpm for 2 hours. The bulk of the solution was removed by careful pipetting, and pelleted virions (visible as slight white pellets) were removed from the bottom of the ultracentrifuge tubes by resuspension in residual medium, typically resulting in a volume of 60 to 100 microliters of concentrated virus particles.
Particles were loaded into 10-20% (w/v) Tris-HCl or Tris-tricine precast gradient gels (Bio-Rad Laboratories, Richmond, Calif.) and electrophoresed until the bromphenyl blue marker migrated to at least the bottom of the gel. […] IN or IN chimera proteins were detected using a rabbit anti-IN polyclonal serum and visualized by chemiluminescence development (NEN Life Science Products) of bound HRP-conjugated anti-rabbit 1gG antisera used at 1/1500 dilution (Sigma Chemical Co., St. Louis, Mo.).

[4] = virions from 293T cells co-transfected with pNL4-3 (Vpr expressed)
[5] = HIV-1 provirus template D116N (Table 4)
[6] = HIV-1 provirus template D116N, average of duplicate experiments (Table 4)
[7] = HIV-1 provirus template IN (1-4) (Table 5)
[8] = HIV-1 provirus template IN (1-234) (Table 5)

Molecule | CAT activity of virions (conversion of chloramphenicol to an acetylated product) (HIV-1 virions [1]; [4]) | CAT activity of virions (conversion of chloramphenicol to an acetylated product) (HIV-1 virions [1]; virions from 293T cells co-transfected with pNL4-3DVpr (Vpr not expressed)) | % of Wild Type (syncytia) [2, 5] | Number of Syncytia Formed [2, 6] | Number of Syncytia Formed [2, 7] | Number of Syncytia Formed [2, 8] | amount of fusion protein incorporated into progeny virions (HIV-1 virions [3]) | % of Wild Type (syncytia) ([2]; HIV-1 provirus template IN (1-234) (Table 4)) | Number of Syncytia Formed ([2]; HIV-1 provirus template IN (1-234), average of duplicate experiments (Table 4))
B1 | 8 % conversion | – | – | – | – | – | – | – | –
B2 | 28 % conversion | 8 % conversion | – | – | – | – | – | – | –
B3 | – | – | 20.8% | 42 | 10 | 14 | equal to the amount of IN(D116N) protein incorporated into progeny virions | – | –
B4 | – | – | 25.7% | 52 | 18 | 20 | – | 21.7% | 44
